Laboratory results: publication PMC12102759 (2025)

B1: AXIN1 peptide 235-250 (Axin-1), 16-mer library wild type / PP2A B56 (PPP2R5A B56 domain, residues 1-486) (parent complex)
chain 1: SGYLPTLNEDEEWKAD
chain 2: not shown
B2: SH3BP2 peptide 410-425 (SH3 domain-binding protein 2), 16-mer library wild type / TNKS ANK (TNKS 12 ANK repeats, residues 174-649) (parent complex)
chain 1: LPHLQRSPPDGQSFRS
chain 2: TGVPAVSGALRELLEACRNGDVSRVKRLVDAANVNAKDMAGRKSSPLHFAAGFGRKDVVEHLLQMGANVHARDDGGLIPLHNACSFGHAEVVSLLLCQGADPNARDNWNYTPLHEAAIKGKIDVCIVLLQHGADPNIRNTDGKSALDLADPSAKAVLTGEYKKDELLEAARSGNEEKLMALLTPLNVNCHASDGRKSTPLHLAAGYNRVRIVQLLLQHGADVHAKDKGGLVPLHNACSYGHYEVTELLLKHGACVNAMDLWQFTPLHEAASKNRVEVCSLLLSHGADPTLVNCHGKSAVDMAPTPELRERLTYEFKGHSLLQAAREADLAKVKKTLALEIINFKQPQSHETALHCAVASLHPKRKQVTELLLRKGANVNEKNKDFMTPLHVAAERAHNDVMEVLHKHGAKMNALDTLGQTALHRAALAGHLQTCRLLLSYGSDPSIISLQGFTAAQMGNEAVQQILSESTPIRTSD

Variants of: B1
Experiment: proteomic peptide phage display deep mutational scan (ProP-PD DMS): M13 P8 16-mer library selected against immobilised GST-tagged bait for four days (rounds), NGS of the eluted pools per day and pseudo-replica; bait immobilised on MaxiSorp plates (10 µg), library pre-cleared on GST, 2 h binding at 4 °C, five washes; one round per day, days 1-4; value from days 2 and 3

Variant	screen value
chain 1 E11Q	0.00516 average fractional NGS count over selection days 2 and 3 (reads of this peptide / all reads for the bait, averaged over …
chain 1 E11S	0.000584 average fractional NGS count over selection days 2 and 3 (reads of this peptide / all reads for the bait, averaged over …
chain 1 E11F	0.00161 average fractional NGS count over selection days 2 and 3 (reads of this peptide / all reads for the bait, averaged over …
chain 1 E11R	0.000311 average fractional NGS count over selection days 2 and 3 (reads of this peptide / all reads for the bait, averaged over …
chain 1 E11A	0.000236 average fractional NGS count over selection days 2 and 3 (reads of this peptide / all reads for the bait, averaged over …
chain 1 E11V	0.000234 average fractional NGS count over selection days 2 and 3 (reads of this peptide / all reads for the bait, averaged over …
chain 1 E11K	0.000202 average fractional NGS count over selection days 2 and 3 (reads of this peptide / all reads for the bait, averaged over …
chain 1 E11Y	0.000271 average fractional NGS count over selection days 2 and 3 (reads of this peptide / all reads for the bait, averaged over …
chain 1 W13M	0.000138 average fractional NGS count over selection days 2 and 3 (reads of this peptide / all reads for the bait, averaged over …
chain 1 W13Y	0.000277 average fractional NGS count over selection days 2 and 3 (reads of this peptide / all reads for the bait, averaged over …
chain 1 W13L	0.000454 average fractional NGS count over selection days 2 and 3 (reads of this peptide / all reads for the bait, averaged over …
chain 1 A15P	0.00074 average fractional NGS count over selection days 2 and 3 (reads of this peptide / all reads for the bait, averaged over …
chain 1 A15G	0.000885 average fractional NGS count over selection days 2 and 3 (reads of this peptide / all reads for the bait, averaged over …
chain 1 A15Y	0.000791 average fractional NGS count over selection days 2 and 3 (reads of this peptide / all reads for the bait, averaged over …
chain 1 A15T	0.000294 average fractional NGS count over selection days 2 and 3 (reads of this peptide / all reads for the bait, averaged over …
chain 1 L7I	0.000349 average fractional NGS count over selection days 2 and 3 (reads of this peptide / all reads for the bait, averaged over …
chain 1 Y3S	0.000173 average fractional NGS count over selection days 2 and 3 (reads of this peptide / all reads for the bait, averaged over …
chain 1 Y3V	0.00041 average fractional NGS count over selection days 2 and 3 (reads of this peptide / all reads for the bait, averaged over …
chain 1 D16L	0.000211 average fractional NGS count over selection days 2 and 3 (reads of this peptide / all reads for the bait, averaged over …
chain 1 D16M	0.00821 average fractional NGS count over selection days 2 and 3 (reads of this peptide / all reads for the bait, averaged over …
chain 1 D16E	0.000288 average fractional NGS count over selection days 2 and 3 (reads of this peptide / all reads for the bait, averaged over …
chain 1 D16P	0.000234 average fractional NGS count over selection days 2 and 3 (reads of this peptide / all reads for the bait, averaged over …

Variant	screen value
chain 1 D16H	0.0014 average fractional NGS count over selection days 2 and 3 (reads of this peptide / all reads for the bait, averaged over …
chain 1 D16G	0.000202 average fractional NGS count over selection days 2 and 3 (reads of this peptide / all reads for the bait, averaged over …
chain 1 D16V	0.00077 average fractional NGS count over selection days 2 and 3 (reads of this peptide / all reads for the bait, averaged over …
chain 1 D16N	0.000396 average fractional NGS count over selection days 2 and 3 (reads of this peptide / all reads for the bait, averaged over …
chain 1 D10T	0.000731 average fractional NGS count over selection days 2 and 3 (reads of this peptide / all reads for the bait, averaged over …
chain 1 D10F	0.000124 average fractional NGS count over selection days 2 and 3 (reads of this peptide / all reads for the bait, averaged over …
chain 1 D10L	0.000595 average fractional NGS count over selection days 2 and 3 (reads of this peptide / all reads for the bait, averaged over …
chain 1 D10M	0.00104 average fractional NGS count over selection days 2 and 3 (reads of this peptide / all reads for the bait, averaged over …
chain 1 D10V	0.00335 average fractional NGS count over selection days 2 and 3 (reads of this peptide / all reads for the bait, averaged over …
chain 1 G2A	0.00077 average fractional NGS count over selection days 2 and 3 (reads of this peptide / all reads for the bait, averaged over …
chain 1 G2W	0.00074 average fractional NGS count over selection days 2 and 3 (reads of this peptide / all reads for the bait, averaged over …
chain 1 G2E	0.000393 average fractional NGS count over selection days 2 and 3 (reads of this peptide / all reads for the bait, averaged over …
chain 1 G2L	0.000458 average fractional NGS count over selection days 2 and 3 (reads of this peptide / all reads for the bait, averaged over …
chain 1 G2H	0.000834 average fractional NGS count over selection days 2 and 3 (reads of this peptide / all reads for the bait, averaged over …
chain 1 G2S	0.000675 average fractional NGS count over selection days 2 and 3 (reads of this peptide / all reads for the bait, averaged over …
chain 1 G2D	0.000338 average fractional NGS count over selection days 2 and 3 (reads of this peptide / all reads for the bait, averaged over …
chain 1 E12Q	0.000677 average fractional NGS count over selection days 2 and 3 (reads of this peptide / all reads for the bait, averaged over …
chain 1 E12L	0.00045 average fractional NGS count over selection days 2 and 3 (reads of this peptide / all reads for the bait, averaged over …
chain 1 E12V	0.000291 average fractional NGS count over selection days 2 and 3 (reads of this peptide / all reads for the bait, averaged over …
chain 1 E12P	0.000257 average fractional NGS count over selection days 2 and 3 (reads of this peptide / all reads for the bait, averaged over …
chain 1 E12A	0.000112 average fractional NGS count over selection days 2 and 3 (reads of this peptide / all reads for the bait, averaged over …
chain 1 E12F	0.000153 average fractional NGS count over selection days 2 and 3 (reads of this peptide / all reads for the bait, averaged over …

Variant	screen value
chain 1 N8H	0.000177 average fractional NGS count over selection days 2 and 3 (reads of this peptide / all reads for the bait, averaged over …
chain 1 N8S	0.000146 average fractional NGS count over selection days 2 and 3 (reads of this peptide / all reads for the bait, averaged over …
chain 1 N8T	0.000511 average fractional NGS count over selection days 2 and 3 (reads of this peptide / all reads for the bait, averaged over …
chain 1 N8P	0.000473 average fractional NGS count over selection days 2 and 3 (reads of this peptide / all reads for the bait, averaged over …
chain 1 N8A	0.000156 average fractional NGS count over selection days 2 and 3 (reads of this peptide / all reads for the bait, averaged over …
chain 1 N8E	0.000839 average fractional NGS count over selection days 2 and 3 (reads of this peptide / all reads for the bait, averaged over …
chain 1 N8R	0.000829 average fractional NGS count over selection days 2 and 3 (reads of this peptide / all reads for the bait, averaged over …
chain 1 N8K	0.000298 average fractional NGS count over selection days 2 and 3 (reads of this peptide / all reads for the bait, averaged over …
chain 1 N8F	0.000687 average fractional NGS count over selection days 2 and 3 (reads of this peptide / all reads for the bait, averaged over …
chain 1 T6I	0.000627 average fractional NGS count over selection days 2 and 3 (reads of this peptide / all reads for the bait, averaged over …
chain 1 T6V	0.00125 average fractional NGS count over selection days 2 and 3 (reads of this peptide / all reads for the bait, averaged over …
chain 1 T6A	0.000414 average fractional NGS count over selection days 2 and 3 (reads of this peptide / all reads for the bait, averaged over …
chain 1 P5Y	0.000222 average fractional NGS count over selection days 2 and 3 (reads of this peptide / all reads for the bait, averaged over …
chain 1 P5A	0.00054 average fractional NGS count over selection days 2 and 3 (reads of this peptide / all reads for the bait, averaged over …
chain 1 K14H	0.00281 average fractional NGS count over selection days 2 and 3 (reads of this peptide / all reads for the bait, averaged over …
chain 1 K14Y	0.00389 average fractional NGS count over selection days 2 and 3 (reads of this peptide / all reads for the bait, averaged over …
chain 1 K14W	0.00219 average fractional NGS count over selection days 2 and 3 (reads of this peptide / all reads for the bait, averaged over …
chain 1 K14P	0.000647 average fractional NGS count over selection days 2 and 3 (reads of this peptide / all reads for the bait, averaged over …
chain 1 K14G	0.00056 average fractional NGS count over selection days 2 and 3 (reads of this peptide / all reads for the bait, averaged over …
chain 1 K14Q	0.00109 average fractional NGS count over selection days 2 and 3 (reads of this peptide / all reads for the bait, averaged over …
chain 1 K14N	0.000231 average fractional NGS count over selection days 2 and 3 (reads of this peptide / all reads for the bait, averaged over …
chain 1 K14D	0.000812 average fractional NGS count over selection days 2 and 3 (reads of this peptide / all reads for the bait, averaged over …

Variants of: B2
Experiment: as above

Variant	screen value
chain 1 R15K	0.00112 average fractional NGS count over selection days 2 and 3 (reads of this peptide / all reads for the bait, averaged over …
chain 1 R15N	0.000839 average fractional NGS count over selection days 2 and 3 (reads of this peptide / all reads for the bait, averaged over …
chain 1 R15I	0.00013 average fractional NGS count over selection days 2 and 3 (reads of this peptide / all reads for the bait, averaged over …
chain 1 R15M	0.00237 average fractional NGS count over selection days 2 and 3 (reads of this peptide / all reads for the bait, averaged over …
chain 1 R15L	0.000467 average fractional NGS count over selection days 2 and 3 (reads of this peptide / all reads for the bait, averaged over …
chain 1 R15A	0.000604 average fractional NGS count over selection days 2 and 3 (reads of this peptide / all reads for the bait, averaged over …
chain 1 R15V	0.00361 average fractional NGS count over selection days 2 and 3 (reads of this peptide / all reads for the bait, averaged over …
chain 1 R15E	0.0203 average fractional NGS count over selection days 2 and 3 (reads of this peptide / all reads for the bait, averaged over …
chain 1 R15D	0.000883 average fractional NGS count over selection days 2 and 3 (reads of this peptide / all reads for the bait, averaged over …
